Data: the supplement of paper PMC6379048

Experiments:
Experiment in all cases: Kd (EC50 corrected by depletion factor)
[1] = target: T1, CMTR1 (UniProt Q8N1G2)
T1 sequence: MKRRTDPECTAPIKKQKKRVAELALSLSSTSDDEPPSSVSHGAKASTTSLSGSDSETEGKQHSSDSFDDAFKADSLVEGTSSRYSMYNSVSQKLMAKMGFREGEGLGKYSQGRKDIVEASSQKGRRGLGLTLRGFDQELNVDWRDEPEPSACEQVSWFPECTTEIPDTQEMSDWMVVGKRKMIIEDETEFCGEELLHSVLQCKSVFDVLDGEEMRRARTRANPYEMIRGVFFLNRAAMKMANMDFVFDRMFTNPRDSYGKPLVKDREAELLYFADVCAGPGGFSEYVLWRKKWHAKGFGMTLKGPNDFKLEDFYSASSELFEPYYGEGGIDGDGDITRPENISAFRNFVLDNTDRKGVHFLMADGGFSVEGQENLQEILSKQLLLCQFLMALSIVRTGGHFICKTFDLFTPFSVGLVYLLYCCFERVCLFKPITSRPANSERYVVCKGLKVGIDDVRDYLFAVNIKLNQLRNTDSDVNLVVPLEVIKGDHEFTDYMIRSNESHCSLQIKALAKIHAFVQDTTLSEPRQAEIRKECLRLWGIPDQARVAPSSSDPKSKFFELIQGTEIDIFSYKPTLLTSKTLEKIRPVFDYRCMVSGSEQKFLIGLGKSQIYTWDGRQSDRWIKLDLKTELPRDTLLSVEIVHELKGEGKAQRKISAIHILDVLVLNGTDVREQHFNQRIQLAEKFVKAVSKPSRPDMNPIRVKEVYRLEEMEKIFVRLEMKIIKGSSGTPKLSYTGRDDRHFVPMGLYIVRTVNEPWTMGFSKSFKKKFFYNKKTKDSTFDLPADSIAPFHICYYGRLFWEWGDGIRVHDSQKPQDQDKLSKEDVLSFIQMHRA
Procedure, shortened: (§1)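 Kd was calculated as EC50, taken from a four-parameter log-logistic fit, multiplied by a protein-dependent depletion factor. The assay used HEK293-FT lysate (2.5 mg protein/well) pre-incubated for 1 h at 4°C with free RNA oligos (0 nM to 30 μM), then incubated for 30 min at 4°C with the matching oligos bound through a 5′-amino-C6 linker to NHS-Sepharose beads. Bound proteins were measured by label-free LC-MS/MS and normalised to the control.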

[2] = target: T2, FIP1L1 (UniProt Q6UN15)
T2 sequence: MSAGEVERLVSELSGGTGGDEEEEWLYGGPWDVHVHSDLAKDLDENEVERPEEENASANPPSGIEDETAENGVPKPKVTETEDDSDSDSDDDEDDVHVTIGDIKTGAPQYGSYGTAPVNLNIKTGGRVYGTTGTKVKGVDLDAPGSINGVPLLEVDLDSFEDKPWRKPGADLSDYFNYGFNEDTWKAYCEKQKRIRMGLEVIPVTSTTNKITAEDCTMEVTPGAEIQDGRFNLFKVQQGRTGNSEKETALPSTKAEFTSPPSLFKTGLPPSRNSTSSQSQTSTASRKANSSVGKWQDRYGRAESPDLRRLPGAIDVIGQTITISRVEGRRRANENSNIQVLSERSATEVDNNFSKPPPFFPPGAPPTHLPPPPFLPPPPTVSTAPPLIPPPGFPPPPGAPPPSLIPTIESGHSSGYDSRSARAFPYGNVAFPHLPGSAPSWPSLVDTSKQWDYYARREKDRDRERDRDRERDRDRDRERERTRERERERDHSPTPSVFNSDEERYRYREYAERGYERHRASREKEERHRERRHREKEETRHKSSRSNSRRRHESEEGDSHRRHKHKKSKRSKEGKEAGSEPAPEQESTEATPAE
Procedure, shortened: as §1

[3] = target: T3, GPATCH3 (UniProt Q96I76)
T3 sequence: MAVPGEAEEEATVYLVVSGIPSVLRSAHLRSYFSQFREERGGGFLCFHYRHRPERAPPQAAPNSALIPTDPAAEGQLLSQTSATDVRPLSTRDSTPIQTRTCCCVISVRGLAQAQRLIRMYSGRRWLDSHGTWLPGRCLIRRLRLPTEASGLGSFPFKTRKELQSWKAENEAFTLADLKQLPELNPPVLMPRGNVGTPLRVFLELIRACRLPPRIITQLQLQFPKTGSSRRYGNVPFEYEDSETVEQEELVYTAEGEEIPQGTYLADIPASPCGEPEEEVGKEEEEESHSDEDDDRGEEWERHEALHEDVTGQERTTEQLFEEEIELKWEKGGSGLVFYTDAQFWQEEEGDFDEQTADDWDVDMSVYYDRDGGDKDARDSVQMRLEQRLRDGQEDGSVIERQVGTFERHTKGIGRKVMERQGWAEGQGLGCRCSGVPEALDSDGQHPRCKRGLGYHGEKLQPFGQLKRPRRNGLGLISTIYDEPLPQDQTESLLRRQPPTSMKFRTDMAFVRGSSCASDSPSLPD
Procedure, shortened: as §1

[4] = target: T4, ZNF830 (UniProt Q96NB3)
T4 sequence: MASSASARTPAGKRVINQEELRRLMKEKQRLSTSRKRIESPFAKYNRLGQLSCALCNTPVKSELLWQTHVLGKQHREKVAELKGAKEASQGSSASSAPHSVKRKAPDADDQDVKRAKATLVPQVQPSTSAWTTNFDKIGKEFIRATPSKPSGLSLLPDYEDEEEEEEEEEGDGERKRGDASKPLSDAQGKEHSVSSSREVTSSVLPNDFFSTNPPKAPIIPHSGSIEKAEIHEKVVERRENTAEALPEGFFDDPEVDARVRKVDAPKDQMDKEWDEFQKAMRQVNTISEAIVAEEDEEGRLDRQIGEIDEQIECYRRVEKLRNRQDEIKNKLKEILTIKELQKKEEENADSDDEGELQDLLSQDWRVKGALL
Procedure, shortened: as §1

[5] = target: RPS16 (UniProt P62249)
Procedure, shortened: as §1

Sequence | Kd [1] | Kd [2] | Kd [3] | Kd [4] | Kd [5]
UAUUUAU | 591 nM | 482 nM | 243 nM | 228 nM | –
AAUAAA | 209 nM | 8.24 nM | 196 nM | 379 nM | 349 nM
CUGUCCU | – | – | – | – | 77 nM
